Laboratory results reported in article PMC8745601 (International Journal of Molecular Sciences, 2021).
Where two headings read alike, the source gives them in different places.

What was measured:
[1] = system: breast cancer cell lines MCF-7, MDA-MB-231, ZR-75-1; test: Resazurin cell viability assay in breast cancer cell lines; conditions: 100 µM MPP+, 100 µmol/L doxorubicin, 72 h
Protocol: Resazurin-Assay: To determine cell viability, cells were seeded at a density of 10,000 cells/well in 96-well multiplates. […] Afterward, 100 µL from each well was placed in a cavity of a 96-well plate, and the fluorescence was determined on a microplate reader (TECAN infinite M200, Tecan GmbH, Crailsheim, Germany) at an excitation wavelength of 530 nm and an emission wavelength of 590 nm.

P-gp = molecular target: T1, P-gp (Homo sapiens, UniProt P08183); test: Transwell assay, MDCKII cells stably expressing P-gp; format: cell-based; conditions: PSC833 10 µmol/L; 100 µmol/L doxorubicin
T1 construct: expressed in transfected cells; host or cells: MDCKII
T1 sequence (P08183 whole entry): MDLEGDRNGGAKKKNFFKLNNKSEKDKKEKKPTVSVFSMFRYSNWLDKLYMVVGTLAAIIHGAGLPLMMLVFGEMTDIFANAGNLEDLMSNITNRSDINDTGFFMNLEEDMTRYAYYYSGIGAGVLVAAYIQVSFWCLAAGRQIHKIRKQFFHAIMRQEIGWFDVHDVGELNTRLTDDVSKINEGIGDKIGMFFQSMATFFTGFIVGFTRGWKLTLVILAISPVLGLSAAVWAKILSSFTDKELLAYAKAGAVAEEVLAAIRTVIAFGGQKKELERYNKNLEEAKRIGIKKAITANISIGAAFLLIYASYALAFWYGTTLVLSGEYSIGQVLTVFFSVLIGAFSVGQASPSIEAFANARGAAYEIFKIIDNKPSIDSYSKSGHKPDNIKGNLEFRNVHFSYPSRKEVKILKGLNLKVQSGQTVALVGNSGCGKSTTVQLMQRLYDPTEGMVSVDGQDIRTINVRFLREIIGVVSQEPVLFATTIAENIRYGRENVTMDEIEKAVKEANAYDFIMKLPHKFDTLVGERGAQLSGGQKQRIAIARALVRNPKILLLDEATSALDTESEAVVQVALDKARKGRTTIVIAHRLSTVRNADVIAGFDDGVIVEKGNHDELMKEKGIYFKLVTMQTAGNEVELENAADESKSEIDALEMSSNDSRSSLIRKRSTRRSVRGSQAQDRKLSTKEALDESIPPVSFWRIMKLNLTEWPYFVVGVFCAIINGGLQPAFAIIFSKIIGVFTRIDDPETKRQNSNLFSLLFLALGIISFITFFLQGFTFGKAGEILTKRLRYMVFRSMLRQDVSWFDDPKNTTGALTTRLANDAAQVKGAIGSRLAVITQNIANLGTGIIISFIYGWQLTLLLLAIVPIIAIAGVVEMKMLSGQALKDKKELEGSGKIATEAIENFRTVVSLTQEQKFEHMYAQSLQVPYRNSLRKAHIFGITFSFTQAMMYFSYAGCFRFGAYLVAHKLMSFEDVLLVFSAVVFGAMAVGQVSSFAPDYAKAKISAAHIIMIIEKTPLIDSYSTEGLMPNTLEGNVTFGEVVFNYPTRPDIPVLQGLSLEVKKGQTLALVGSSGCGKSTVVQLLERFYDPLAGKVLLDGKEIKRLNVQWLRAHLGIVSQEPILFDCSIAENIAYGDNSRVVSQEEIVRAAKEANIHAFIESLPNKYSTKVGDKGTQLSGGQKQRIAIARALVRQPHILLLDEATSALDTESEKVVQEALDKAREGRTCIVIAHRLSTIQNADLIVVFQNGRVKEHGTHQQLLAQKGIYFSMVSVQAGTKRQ
Protocol: In brief, MDCKII cells stably expressing P-gp or BCRP were seeded on 0.4 µm Transwell® membrane inserts (200.000 cells/insert; Ø6.5 mm, growth area 0.33 cm2) and allowed to differentiate for five days. The integrity of the monolayer was confirmed by monitoring the trans-epithelial electrical resistance (TEER) using the EVOMX system (WPI, Sarasota, FL, USA). […] Every 30 min, the incubation buffer was removed from the receiver compartment and replaced by a freshly preheated buffer for a total time of 2.5 h.

[2] = substrate: COc1cccc2c1C(=O)c1c(O)c3c(c(O)c1C2=O)C[C@@](O)(C(=O)CO)C[C@@H]3O[C@H]1C[C@H](N)[C@H](O)[C@H](C)O1
[3] = substrate: COc1cccc2c1C(=O)c1c(O)c3c(c(O)c1C2=O)C[C@@](O)(C(=O)CO)C[C@@H]3O[C@H]1C[C@H](N)[C@H](O)[C@H](C)O1; test: cells, lysate or membranes; conditions: other: MDCKII-OCT3; doxorubicin 0–100 µmol/L; 3 min; mean ± SD; 37.0 °C

C[n+]1ccc(-c2ccccc2)cc1 [MPP+]
effect of inhibitor on cytotoxic effects of doxorubicin [1]: significantly attenuated

C/C=C/C[C@@H](C)C(=O)[C@H]1C(=O)N[C@@H](C(C)C)C(=O)N(C)CC(=O)N(C)[C@@H](CC(C)C)C(=O)N[C@@H](C(C)C)C(=O)N(C)[C@@H](CC(C)C)C(=O)N[C@@H](C)C(=O)N[C@H](C)C(=O)N(C)[C@@H](CC(C)C)C(=O)N(C)[C@@H](CC(C)C)C(=O)N(C)[C@@H](C(C)C)C(=O)N1C [PSC833]
effect of inhibitor on P-gp-mediated vectorial transport of doxorubicin (P-gp): markedly reduced

B1: OCT2 (Homo sapiens) (protein)
chain: MPTTVDDVLEHGGEFHFFQKQMFFLLALLSATFAPIYVGIVFLGFTPDHRCRSPGVAELSLRCGWSPAEELNYTVPGPGPAGEASPRQCRRYEVDWNQSTFDCVDPLASLDTNRSRLPLGPCRDGWVYETPGSSIVTEFNLVCANSWMLDLFQSSVNVGFFIGSMSIGYIADRFGRKLCLLTTVLINAAAGVLMAISPTYTWMLIFRLIQGLVSKAGWLIGYILITEFVGRRYRRTVGIFYQVAYTVGLLVLAGVAYALPHWRWLQFTVSLPNFFFLLYYWCIPESPRWLISQNKNAEAMRIIKHIAKKNGKSLPASLQRLRLEEETGKKLNPSFLDLVRTPQIRKHTMILMYNWFTSSVLYQGLIMHMGLAGDNIYLDFFYSALVEFPAAFMIILTIDRIGRRYPWAASNMVAGAACLASVFIPGDLQWLKIIISCLGRMGITMAYEIVCLVNAELYPTFIRNLGVHICSSMCDIGGIITPFLVYRLTNIWLELPLMVFGVLGLVAGGLVLLLPETKGKALPETIEEAENMQRPRKNKEKMIYLQVQKLDIPLN
Km [2]: 76.1 ± 42.8 µM

B2: OCT3 (Homo sapiens) (protein)
chain: MPSFDEALQRVGEFGRFQRRVFLLLCLTGVTFAFLFVGVVFLGTQPDHYWCRGPSAAALAERCGWSPEEEWNRTAPASRGPEPPERRGRCQRYLLEAANDSASATSALSCADPLAAFPNRSAPLVPCRGGWRYAQAHSTIVSEFDLVCVNAWMLDLTQAILNLGFLTGAFTLGYAADRYGRIVIYLLSCLGVGVTGVVVAFAPNFPVFVIFRFLQGVFGKGTWMTCYVIVTEIVGSKQRRIVGIVIQMFFTLGIIILPGIAYFIPNWQGIQLAITLPSFLFLLYYWVVPESPRWLITRKKGDKALQILRRIAKCNGKYLSSNYSEITVTDEEVSNPSFLDLVRTPQMRKCTLILMFAWFTSAVVYQGLVMRLGIIGGNLYIDFFISGVVELPGALLILLTIERLGRRLPFAASNIVAGVACLVTAFLPEGIAWLRTTVATLGRLGITMAFEIVYLVNSELYPTTLRNFGVSLCSGLCDFGGIIAPFLLFRLAAVWLELPLIIFGILASICGGLVMLLPETKGIALPETVDDVEKLGSPHSCKCGRNKKTPVSRSHL
Km [3]: 13.0 ± 10.7 µM

B3: OCT1 (Homo sapiens) (protein)
chain: MPTVDDILEQVGESGWFQKQAFLILCLLSAAFAPICVGIVFLGFTPDHHCQSPGVAELSQRCGWSPAEELNYTVPGLGPAGEAFLGQCRRYEVDWNQSALSCVDPLASLATNRSHLPLGPCQDGWVYDTPGSSIVTEFNLVCADSWKLDLFQSCLNAGFLFGSLGVGYFADRFGRKLCLLGTVLVNAVSGVLMAFSPNYMSMLLFRLLQGLVSKGNWMAGYTLITEFVGSGSRRTVAIMYQMAFTVGLVALTGLAYALPHWRWLQLAVSLPTFLFLLYYWCVPESPRWLLSQKRNTEAIKIMDHIAQKNGKLPPADLKMLSLEEDVTEKLSPSFADLFRTPRLRKRTFILMYLWFTDSVLYQGLILHMGATSGNLYLDFLYSALVEIPGAFIALITIDRVGRIYPMAMSNLLAGAACLVMIFISPDLHWLNIIIMCVGRMGITIAIQMICLVNAELYPTFVRNLGVMVCSSLCDIGGIITPFIVFRLREVWQALPLILFAVLGLLAAGVTLLLPETKGVALPETMKDAENLGRKAKPKENTIYLKVQTSEPSGT
Km [2]: 4.66 ± 3.43 µM
